We go through seven molecules from paper PMC10682391, “Discovery of a non-canonical prototype long-chain monoacylglycerol lipase through a structure-based endogenous reaction intermediate complex” (Nature Communications, 2023).

Substitutions are numbered along the chain they refer to. Numbers in names are those of the source.

In data set [1] the target is T1, Tth MAG lipase (Thermoanaerobacter ethanolicus, UniProt A0A1G7VV58).
T1 construct: gene SAMN04244560_02687; full length, residues 1-259; E. coli; pETM-14, Ni-NTA purified (kinetics); pETBlue-1 (crystals, some SeMet and lysine-methylated); homodimer; Ser113/His233, HGF 35-37, FSE 77-79, lid 141-183
Description: X-ray crystal structure; LC-MS of dissolved crystals. The settings on record: endogenous ligand from E. coli; loosely coordinated tetrahedral intermediate at Ser113; SeMet, lysine-methylated protein; active site and lid tunnel. Format: binding.

Data set [2] deals with T1, Tth MAG lipase. Description: X-ray crystal structure. Format: binding. The settings on record: active site, bound by Glu43; native protein crystals, no glycerol added.
Data set [3] has as its target T1, Tth MAG lipase. As to the kind of experiment: pNP ester hydrolysis, […] nm, Michaelis-Menten fit. Format: biochemical. The settings on record: 50 mM Tris-HCl pH 8.0, 40 °C, 1 mg/ml gum arabic.
Data set [4] has as its target Tth MAG lipase (wild type), monoacylglycerol lipase from Thermoanaerobacter thermohydrosulfuricus (Thermoanaerobacter thermohydrosulfuricus). As to the kind of experiment: SEC; size exclusion chromatography profile, Superdex 75 increase 3.2/300 column (Cytiva); dimeric and monomeric fractions.
Substrate in data set [5]: CCCCCCCC(=O)Oc1ccc([N+](=O)[O-])cc1
As to the kind of experiment: purified protein. Format: biochemical, Thermoanaerobacter ethanolicus. The settings on record: 50 mM Tris-HCl pH 8.0, 40 °C, 1 mg/ml gum arabic.

Substrate in data set [6]: CCCCCCCCCCCCCC(=O)Oc1ccc([N+](=O)[O-])cc1
Description: purified protein. Format: biochemical, Thermoanaerobacter ethanolicus. The settings on record: 50 mM Tris-HCl pH 8.0, 40 °C, 1 mg/ml gum arabic.

Substrate in data set [7]: CCCCCCCCCCCC(=O)Oc1ccc([N+](=O)[O-])cc1
Description: purified protein. Format: biochemical, Thermoanaerobacter ethanolicus. The conditions noted are these: 50 mM Tris-HCl pH 8.0, 40 °C, 1 mg/ml gum arabic.

Substrate in data set [8]: CCCC(=O)Oc1ccc([N+](=O)[O-])cc1
As to the kind of experiment: purified protein. Format: biochemical, Thermoanaerobacter ethanolicus. The settings on record: 50 mM Tris-HCl pH 8.0, 40 °C, 1 mg/ml gum arabic.

Substrate in data set [9]: CCCCCC(=O)Oc1ccc([N+](=O)[O-])cc1
As to the kind of experiment: purified protein. Format: biochemical, Thermoanaerobacter ethanolicus. The conditions noted are these: 50 mM Tris-HCl pH 8.0, 40 °C, 1 mg/ml gum arabic.

As for `CCCCCCCCCCCCCCCCCC(=O)OCC(O)CO` (stereo not shown) [glycerol monostearate, 2,3-dihydroxypropyloctadecanoate], at Tth MAG lipase [1], the “X-ray crystal structure; LC-MS of dissolved crystals” value is reported as “we modeled a monostearate (C18) acyl ligand into the electron density of the active Tth”.
Regarding `OCC(O)CO` [glycerol], the X-ray crystal structure result at Tth MAG lipase [2] is recorded as “glycerol is found in a literally identical active site position in five out of six”.
Broadly, the Km is the concentration of substrate that gives half-maximal velocity. In the case of `CC(=O)Oc1ccc([N+](=O)[O-])cc1` [C2 pNP ester], the Km on Tth MAG lipase [3] was greater than 2000 µM.
By stoichiometry N is commonly meant the number of molecules, sites or subunits per partner or assembly. As to “Tth MAG lipase (wild type), monoacylglycerol lipase from Thermoanaerobacter thermohydrosulfuricus (enzyme)”, in data set [4], the stoichiometry N worked out at 2.

B1: Tth MAG lipase (Thermoanaerobacter ethanolicus subsp. thermohydrosulfuricus) (protein)
chain: MQKAVEITYNGKTLRGMMHLPDDVKGKVPMVIMFHGFTGNKVESHFIFVKMSRALEKVGIGSVRFDFYGSGESDGDFSEMTFSSELEDARQILKFVKEQPTTDPERIGLLGLSMGGAIAGIVAREYKDEIKALVLWAPAFNMPELIMHESVKQYGAIMEQLGFVDIGGHKLSKDFVEDISKLNIFELSKGYDKKVLIVHGTNDEAVEYKVSDRILKEVYGDNATRVTIENADHTFKSLEWEKKAIEESVEFFKKELLKG
notes: full length, residues 1-259; E. coli; pETM-14, Ni-NTA purified (kinetics); pETBlue-1 (crystals, some SeMet and lysine-methylated); homodimer; Ser113/His233, HGF 35-37, FSE 77-79, lid 141-183
As a reminder, the kcat is the maximal rate divided by the concentration of active sites. Turning to B1, the Km in the data set “purified protein [5]” is 4.9 ± 1.5 x 10^-1 mM; in “purified protein [6]”, 100 µM; in the data set “purified protein [7]”, 100 µM; in the data set “purified protein [8]”, 7.1 ± 0.7 x 10^-1 mM; in “purified protein [9]”, 3.6 ± 0.8 x 10^-1 mM. In addition, the kcat in the data set “purified protein [5]” was found to be 5.5 ± 0.8 s⁻¹; in the data set “purified protein [8]”, 8.6 ± 0.5 s⁻¹; in the data set “purified protein [9]” it was 4.9 ± 0.4 s⁻¹.

B2: Tth MAG lipase (Thermoanaerobacter ethanolicus subsp. thermohydrosulfuricus; E43A) (protein)
chain: B1 chain with E43A
notes: as for B1
On to B2, for which, in the data set “purified protein [9]”, the Km was 7.1 ± 3.0 x 10^-1 mM and the catalytic constant (kcat) is 1.2 ± 0.3 x 10^1 s^-1.

B3: Tth MAG lipase (Thermoanaerobacter ethanolicus subsp. thermohydrosulfuricus; Y154A) (protein)
chain: B1 chain with Y154A
notes: as for B1
Take B3: in the data set “purified protein [9]”, the Km is 4.8 ± 0.8 x 10^-1 mM and the kcat turned out to be 5.7 ± 0.4 s⁻¹.
